{"source": "patent US20220025032A1", "about": "(Novartis, published 2022)", "binders": {"B1": {"name": "NVS8 (Fab, V domains shown)", "VH": "EVQLVESGGGLVQPGGSLRLSCTASGFSLTDYYYMTWVRQAPGKGLEWVGFIDPDDDPYYATWAKGRFTISRDNSKNTLYLQMNSLRAEDTAVYYCAGGDHNSGWGLDIWGQGTLVTVSS", "VL": "EIVMTQSPSTLSASVGDRVIITCQASEIIHSWLAWYQQKPGKAPKLLIYLASTLASGVPSRFSGSGSGAEFTLTISSLQPDDFATYYCQNVYLASTNGANFGQGTKLTVLK", "notes": "Fab version of the anti-VEGF 1008 scFv; also called anti-VEGF Fab"}}, "key": {"[1]": {"biological_target": "T1, Human VEGF165 (human, UniProt P15692 27-191)", "T1 construct": "mature; biotinylated in the VEGFR2 ELISAs; also called human VEGF-A; VEGF-A", "T1 sequence (P15692 other isoform, or with tags, fused parts or gaps)": "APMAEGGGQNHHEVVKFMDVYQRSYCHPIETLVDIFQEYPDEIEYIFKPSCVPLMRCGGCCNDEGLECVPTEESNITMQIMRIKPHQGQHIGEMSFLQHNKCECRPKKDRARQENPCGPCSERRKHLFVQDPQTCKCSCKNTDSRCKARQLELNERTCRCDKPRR", "assay": "competition ELISA: antibody pre-incubated with 400 pM VEGF-biotin, added to coated VEGFR2, streptavidin-HRP detection; y axis OD", "method": "(§1) The plates were then washed 3 times using 1λTBST. The plates were blocked in 2% BSA diluent (0.1% Tween 20/0.1% TirtonX100) overnight. After blocking, the plates were washed 3 times using TB ST and then the sample mixture was added at 20 μl/well. The sample mixture consisted a final fixed concentration of VEGF-biotin (in-house) at 400 pM and a 15 point 1:2 serial dilution of the antibody starting at 20 nM. The sample mixture was pre-incubated for 1 hour prior to adding to the plate and then incubated for another hour at room temperature on the plate. Afterwards, the plate was washed 3 times using TBST and 20 μl/well of Streptavidin-HRP diluted at 1:5000 was added for an incubation time of 1 hour. The plates were washed 3 times in TBST and then 20 μl/well of TMB substrate was added. TMB is a chromogen that yields a blue color when oxidized. TMB was incubated for 10 minutes until the signal saturated in the no antibody samples, and then 10 μl/well of 2N sulfuric acid was added which then changes the blue color to yellow and this now has a maximum absorbance at 450 nm."}, "[2]": {"biological_target": "T1, Human VEGF165", "assay": "competition ELISA: antibody pre-incubated with biotinylated human VEGF, added to coated human VEGFR2-Fc, streptavidin-HRP detection; blocked partner VEGFR2-Fc", "method": "NVS11 neutralization of VEGF was determined by ELISA. Various concentrations of NVS11 was pre-incubated with biotinylated human VEGF and added to VEGFR2-Fc coated plates."}, "[3]": {"biological_target": "T2, Human BTC (human, UniProt P35070 32-111)", "T2 construct": "Soluble human BTC of the Biacore, ELISA, MSD and cell assays; also called human betacellulin; soluble human BTC", "T2 sequence": "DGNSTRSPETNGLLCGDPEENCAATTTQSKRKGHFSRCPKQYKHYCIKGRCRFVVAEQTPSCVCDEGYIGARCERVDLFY", "assay": "sandwich ELISA: BTC coated, Fab titrated, detection with VEGF-biotin (bridging readout)", "method": "A sandwich enzyme linked immunosorbent assay (ELISA) was performed by coating either BTC or VEGF, then adding a titration of NVS11 followed by detection with the second target, either biotinylated BTC or biotinylated VEGF. […] Neither of the single Fabs, NVS1 or NVS8, could bind to both BTC and VEGF at the same time."}, "[4]": {"biological_target": "T1, Human VEGF165", "assay": "competition ELISA: antibody pre-incubated with 400 pM VEGF-biotin, added to coated VEGFR2, streptavidin-HRP detection; y axis OD", "method": "as §1", "remark": "listed apart in the source"}, "[5]": {"biological_target": "T1, Human VEGF165", "assay": "competition ELISA: antibody pre-incubated with 400 pM VEGF-biotin, added to coated VEGFR2, streptavidin-HRP detection; y axis OD", "method": "as §1", "remark": "listed apart in the source"}, "[6]": {"biological_target": "T1, Human VEGF165", "assay": "SPR Biacore T200, anti-Fab capture, antigen as analyte (cells shifted left after the merged BTC cell)"}, "[7]": {"biological_target": "T3, Human BTC-avitag-biotin (human, UniProt P35070 32-111, biotin on the avitag)", "T3 construct": "also called biotin-BTC; soluble human BTC-avitag-biotin", "T3 sequence": "T2 sequence", "assay": "flow cytometry, BTC-ErbB4 Cell Binding Inhibition with HKB11 cells over-expressing human ErbB4", "method": "In order to assess potency of the Fabs and bispecific in neutralizing binding of BTC to its receptor Erb 1 or ErbB4, the following assay was performed. HKB11 over-expressing either ErbB1 or ErbB4 cells were plated 1×10⁵ cells/well. Cells were washed once with FACS buffer by spun down at 1200 rpm for 5 minutes and supernatant removed. Next, the Fab sample dilutions and BTC were prepared in FACS buffer. Human BTC-avitag-biotin was diluted to a fixed concentration of 15 nM. The test Fab samples were prepared at a starting concentration of 40 nM and titrated for 9 points at a serial dilution of 1:2. Both biotin-BTC and the test Fab samples are incubated for 30 minutes at room temperature. The pre-incubated samples were then added to the cell plate at 100 μl per well in duplicate and incubated for 1 hour on ice. […]\nMeasurements were performed on Attune Flow Cytometry machine. Data were analysed using the Flow Jo software. The live cell populations analysed were gated in forward and side scattering (FSC-A/SSC-A dot plot). The interval gate was established on the control histogram, which was obtained with sample incubated in streptavidin-Alexa Fluor488 only, and subsequently, determined percent of positive binding events of cells carrying membrane-bound receptor ErbB1 or ErbB4 and biotin-BTC. The median of fluorescence intensity (MFI) value was also derived for the live cell population. […]"}, "[8]": {"biological_target": "T4, membrane-bound human BTC on 293F-hBTC cells (human, UniProt P35070 32-111)", "T4 construct": "the transfected construct is not described; also called membrane-anchored BTC", "T4 sequence": "T2 sequence", "assay": "flow cytometry on 293F cells with membrane-bound human BTC, anti-human Fab detection", "method": "After washing the cells, the cells were dissociated using Versene at 37° C. The cells were washed with FACS buffer and plated at 100 μl in a 96 well plate using cells at 1×10⁶ cells/ml. Then 100 μl of a serial dilution of antibodies starting at 50 nM was used. The cells were incubated, washed and then treated with the secondary anti-human Fab-FITC antibody. The antibodies only bound to the cells expressing BTC. After which the cells were washed and analyzed on the Attune Flow Cytometry. All data analysis was carried out using Flow Jo software."}}, "note": "Where two headings read alike, the source gives them in different places."}
{"binder": "B1", "values": [{"measurement": "IC50", "setting": "[1]", "value": 1.35, "unit": "nM"}, {"measurement": "IC50 (read off the curve)", "setting": "[2]", "value": "~0.7", "unit": "nM"}, {"measurement": "binding result", "setting": "[3]", "value": "no binding (tested: about 10-20 nM (last marker hidden))"}, {"measurement": "IC50", "setting": "[4]", "value": 1.35, "unit": "nM"}, {"measurement": "IC50", "setting": "[5]", "value": 0.737, "unit": "nM"}, {"measurement": "Kd", "setting": "[6]", "value": 0.003, "unit": "nM"}, {"measurement": "binding result", "setting": "[7]", "value": "no binding (tested: about 25 nM)"}, {"measurement": "binding result", "setting": "[8]", "value": "no binding (tested: about 25 nM)"}]}
